Patent publication US6485904

What was measured:
[1] = target: bovine plasminogen (UniProt P06868)
[2] = target: bovine plasminogen (bovine) (UniProt P06868); assay: cell-based or functional assay
[3] = target: T1, bovine plasminogen, P06868
T1 chain: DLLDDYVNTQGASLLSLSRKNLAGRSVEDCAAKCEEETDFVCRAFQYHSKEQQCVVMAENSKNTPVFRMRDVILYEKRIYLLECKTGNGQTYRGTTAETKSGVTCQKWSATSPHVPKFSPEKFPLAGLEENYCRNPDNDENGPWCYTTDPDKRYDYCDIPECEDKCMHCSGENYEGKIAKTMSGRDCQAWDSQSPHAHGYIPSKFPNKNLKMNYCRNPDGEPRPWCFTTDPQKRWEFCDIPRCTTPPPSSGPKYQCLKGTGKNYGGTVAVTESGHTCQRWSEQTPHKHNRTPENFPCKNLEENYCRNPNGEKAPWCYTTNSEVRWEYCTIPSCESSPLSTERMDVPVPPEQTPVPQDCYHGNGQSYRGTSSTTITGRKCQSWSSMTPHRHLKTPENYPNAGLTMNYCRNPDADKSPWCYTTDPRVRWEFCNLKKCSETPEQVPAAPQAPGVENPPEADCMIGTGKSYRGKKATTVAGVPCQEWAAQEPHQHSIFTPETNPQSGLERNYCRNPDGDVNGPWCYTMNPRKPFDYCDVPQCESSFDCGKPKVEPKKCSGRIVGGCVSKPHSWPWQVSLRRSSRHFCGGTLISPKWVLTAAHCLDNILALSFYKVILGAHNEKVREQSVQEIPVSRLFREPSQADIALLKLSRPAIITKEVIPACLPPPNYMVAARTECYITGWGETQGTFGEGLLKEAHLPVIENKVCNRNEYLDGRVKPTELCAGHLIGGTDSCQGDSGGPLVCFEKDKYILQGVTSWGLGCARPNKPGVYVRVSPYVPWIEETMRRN

Molecule: purified native PauA (strain not stated where used)
- enzymatic activity, chromogenic assay titer [1]: titer=3256
- specific activity [1]: the specific activity for native PauA was 5.9 chromogenic units/µg

Molecule: full-length recombinant PauA of S. uberis strain 95-140 expressed from pER326 in E. coli strain Pz326 (enzyme)
- Titer, chromogenic assay of whole cell pellet (titer (inverse of dilution factor)) [2]: 23.3

Molecule: signal peptide-deleted recombinant PauA of S. uberis strain 95-140 expressed from pER328 in E. coli strain Pz328 (enzyme)
- Titer, chromogenic assay of whole cell pellet (titer (inverse of dilution factor)) [2]: 5.3

Molecule: full-length recombinant PauA of S. uberis strain 95-140 expressed from pER330 in E. coli strain Pz330 (enzyme)
- Titer, chromogenic assay of whole cell pellet (titer (inverse of dilution factor)) [2]: 1

B1: PauA from S. uberis strain c216 expressed by E. coli strain Pz318 (plasmid pER318) (protein)
chain: MKKWFLILMLLGIFGCATQPSKVAAITGYDSDYYARYIDPDENKITFAINVDGFVEGSNQEILIRGIHHVLTDQNQKIVTKAELLDAIRHQMVLLQLDYSYELVDFAPDAQLLTQDRRLLFANQNFEESVSLEDTIQEYLLKGHVILRKRVEEPITHPTETANIEYKVQFATKDGEFHPLPIFVDYGEKHIGEKLTSDEFRKIAEEKLLQLYPDYMIDQKEYTIIKHNSLGQLPRYYSYQDHFSYEIQDRQRIMAKDPKSGKELGETQSIDNVFEKYLITKKSYKP
- zone of clearing on skim-milk plates with or without bovine plasminogen [3]: their ability to express plasminogen-dependent PauA activity was confirmed by their inability to produce a zone of clearing following growth of individual colonies on plasminogen-free skim-milk plates

B2: PauA from S. uberis strain 95-140 expressed by E. coli strain Pz319 (plasmid pER319) (protein)
chain: MKKWFLILMLLGIFGCATQPSKVAAITGYDSDYYARYIDPDENKITFAINVDGFVEGSNQEILIRGIHHVLTNQNQKIVTKAELLDAIRHQMVLLQLDYSYELVDFAPDAQLLTRDRRLLFANRNFEESVSLEDTIQEYLLKGHVILRKRVEEPITHPTETANIEYKVQFATKDGEFHPLPIFVDYGEKHIGEKLTSDEFRKIAEEKLLQRYPDYMIDQKEYTIIKHNSLGQLPRYYSYPDDFSYEIQDRQRIMAKDPKSGKELGETQSIDNVFEKYLITKKSYKP
- zone of clearing on skim-milk plates with or without bovine plasminogen [3]: their ability to express plasminogen-dependent PauA activity was confirmed by their inability to produce a zone of clearing following growth of individual colonies on plasminogen-free skim-milk plates

B3: GST-PauA^28-286 fusion protein (pER356) (protein)
chain: GYDSDYYARYIDPDENKITFAINVDGFVEGSNQEILIRGIHHVLTNQNQKIVTKAELLDAIRHQMVLLQLDYSYELVDFAPDAQLLTRDRRLLFANRNFEESVSLEDTIQEYLLKGHVILRKRVEEPITHPTETANIEYKVQFATKDGEFHPLPIFVDYGEKHIGEKLTSDEFRKIAEEKLLQRYPDYMIDQKEYTIIKHNSLGQLPRYYSYPDDFSYEIQDRQRIMAKDPKSGKELGETQSIDNVFEKYLITKKSYKP
- enzymatic activity, chromogenic assay titer [3]: titer=3448
- specific activity [3]: the specific activity of GST-PauA^28-286 was 1.4
